Numbered stars: 1 amine (or outer) side, 2 acyl side, 3 side chain; on linkers, the order of the positions; unused ones are H or OH. Side chains are listed from the residue outwards. Ends that are not written are not given here. * marks the point of attachment. γGlu = O=C(O)[C@H](CCC(=O)[*:2])N[*:1]; Palmitoyl = CCCCCCCCCCCCCCCC(=O)*

To fix the notation:
T1: human glucose-dependent insulinotropic peptide (gastric inhibitory polypeptide) receptor (human) (UniProt P48546)
T1 sequence (looked up): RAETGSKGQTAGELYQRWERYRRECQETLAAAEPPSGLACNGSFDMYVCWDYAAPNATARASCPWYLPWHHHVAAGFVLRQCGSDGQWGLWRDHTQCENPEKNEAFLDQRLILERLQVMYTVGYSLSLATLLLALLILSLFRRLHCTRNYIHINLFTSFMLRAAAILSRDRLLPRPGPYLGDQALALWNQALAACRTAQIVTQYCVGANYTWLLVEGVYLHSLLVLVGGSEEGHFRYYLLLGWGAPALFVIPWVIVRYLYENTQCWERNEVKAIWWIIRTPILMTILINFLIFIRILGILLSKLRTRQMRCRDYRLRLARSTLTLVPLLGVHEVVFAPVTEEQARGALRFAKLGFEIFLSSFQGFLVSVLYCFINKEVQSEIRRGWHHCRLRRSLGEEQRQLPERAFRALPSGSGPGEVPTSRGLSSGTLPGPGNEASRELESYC

B1: g670 (peptide)
peptide: HSQGTFTSDYSKYK([γGlu-Palmitoyl])DSRSAQDFVQWLVAGG-NH2
modifications: N-terminus assumed
SMILES: CCCCCCCCCCCCCCCC(=O)N[C@@H](CCC(=O)NCCCC[C@H](NC(=O)[C@H](Cc1ccc(O)cc1)NC(=O)[C@H](CCCCN)NC(=O)[C@H](CO)NC(=O)[C@H](Cc1ccc(O)cc1)NC(=O)[C@H](CC(=O)O)NC(=O)[C@H](CO)NC(=O)[C@@H](NC(=O)[C@H](Cc1ccccc1)NC(=O)[C@@H](NC(=O)CNC(=O)[C@H](CCC(N)=O)NC(=O)[C@H](CO)NC(=O)[C@@H](N)Cc1c[nH]cn1)[C@@H](C)O)[C@@H](C)O)C(=O)N[C@@H](CC(=O)O)C(=O)N[C@@H](CO)C(=O)N[C@@H](CCCNC(=N)N)C(=O)N[C@@H](CO)C(=O)N[C@@H](C)C(=O)N[C@@H](CCC(N)=O)C(=O)N[C@@H](CC(=O)O)C(=O)N[C@@H](Cc1ccccc1)C(=O)N[C@H](C(=O)N[C@@H](CCC(N)=O)C(=O)N[C@@H](Cc1c[nH]c2ccccc12)C(=O)N[C@@H](CC(C)C)C(=O)N[C@H](C(=O)N[C@@H](C)C(=O)NCC(=O)NCC(N)=O)C(C)C)C(C)C)C(=O)O
B2: g336 (peptide)
peptide: HSQGTFTSDYSKYLDSK([γGlu-γGlu-Palmitoyl])RAQDFVQWLVAGG-NH2
modifications: N-terminus assumed
SMILES: CCCCCCCCCCCCCCCC(=O)N[C@@H](CCC(=O)N[C@@H](CCC(=O)NCCCC[C@H](NC(=O)[C@H](CO)NC(=O)[C@H](CC(=O)O)NC(=O)[C@H](CC(C)C)NC(=O)[C@H](Cc1ccc(O)cc1)NC(=O)[C@H](CCCCN)NC(=O)[C@H](CO)NC(=O)[C@H](Cc1ccc(O)cc1)NC(=O)[C@H](CC(=O)O)NC(=O)[C@H](CO)NC(=O)[C@@H](NC(=O)[C@H](Cc1ccccc1)NC(=O)[C@@H](NC(=O)CNC(=O)[C@H](CCC(N)=O)NC(=O)[C@H](CO)NC(=O)[C@@H](N)Cc1c[nH]cn1)[C@@H](C)O)[C@@H](C)O)C(=O)N[C@@H](CCCNC(=N)N)C(=O)N[C@@H](C)C(=O)N[C@@H](CCC(N)=O)C(=O)N[C@@H](CC(=O)O)C(=O)N[C@@H](Cc1ccccc1)C(=O)N[C@H](C(=O)N[C@@H](CCC(N)=O)C(=O)N[C@@H](Cc1c[nH]c2ccccc12)C(=O)N[C@@H](CC(C)C)C(=O)N[C@H](C(=O)N[C@@H](C)C(=O)NCC(=O)NCC(N)=O)C(C)C)C(C)C)C(=O)O)C(=O)O
B3: g679 (peptide)
peptide: HGQGTFTSDYSKYLDSK([γGlu-Palmitoyl])RAQDFVEWLVAGG-NH2
modifications: N-terminus assumed
SMILES: CCCCCCCCCCCCCCCC(=O)N[C@@H](CCC(=O)NCCCC[C@H](NC(=O)[C@H](CO)NC(=O)[C@H](CC(=O)O)NC(=O)[C@H](CC(C)C)NC(=O)[C@H](Cc1ccc(O)cc1)NC(=O)[C@H](CCCCN)NC(=O)[C@H](CO)NC(=O)[C@H](Cc1ccc(O)cc1)NC(=O)[C@H](CC(=O)O)NC(=O)[C@H](CO)NC(=O)[C@@H](NC(=O)[C@H](Cc1ccccc1)NC(=O)[C@@H](NC(=O)CNC(=O)[C@H](CCC(N)=O)NC(=O)CNC(=O)[C@@H](N)Cc1c[nH]cn1)[C@@H](C)O)[C@@H](C)O)C(=O)N[C@@H](CCCNC(=N)N)C(=O)N[C@@H](C)C(=O)N[C@@H](CCC(N)=O)C(=O)N[C@@H](CC(=O)O)C(=O)N[C@@H](Cc1ccccc1)C(=O)N[C@H](C(=O)N[C@@H](CCC(=O)O)C(=O)N[C@@H](Cc1c[nH]c2ccccc12)C(=O)N[C@@H](CC(C)C)C(=O)N[C@H](C(=O)N[C@@H](C)C(=O)NCC(=O)NCC(N)=O)C(C)C)C(C)C)C(=O)O
B4: g335 (peptide)
peptide: HSQGTFTSDYSKYLDSK([γGlu-Palmitoyl])RAQDFVQWLVAGG-NH2
modifications: N-terminus assumed
SMILES: CCCCCCCCCCCCCCCC(=O)N[C@@H](CCC(=O)NCCCC[C@H](NC(=O)[C@H](CO)NC(=O)[C@H](CC(=O)O)NC(=O)[C@H](CC(C)C)NC(=O)[C@H](Cc1ccc(O)cc1)NC(=O)[C@H](CCCCN)NC(=O)[C@H](CO)NC(=O)[C@H](Cc1ccc(O)cc1)NC(=O)[C@H](CC(=O)O)NC(=O)[C@H](CO)NC(=O)[C@@H](NC(=O)[C@H](Cc1ccccc1)NC(=O)[C@@H](NC(=O)CNC(=O)[C@H](CCC(N)=O)NC(=O)[C@H](CO)NC(=O)[C@@H](N)Cc1c[nH]cn1)[C@@H](C)O)[C@@H](C)O)C(=O)N[C@@H](CCCNC(=N)N)C(=O)N[C@@H](C)C(=O)N[C@@H](CCC(N)=O)C(=O)N[C@@H](CC(=O)O)C(=O)N[C@@H](Cc1ccccc1)C(=O)N[C@H](C(=O)N[C@@H](CCC(N)=O)C(=O)N[C@@H](Cc1c[nH]c2ccccc12)C(=O)N[C@@H](CC(C)C)C(=O)N[C@H](C(=O)N[C@@H](C)C(=O)NCC(=O)NCC(N)=O)C(C)C)C(C)C)C(=O)O
B5: g381 (peptide)
peptide: HSEGTFTSDYSKYLDSK([γGlu-Palmitoyl])RAQDFVQWLVAGG-NH2
modifications: N-terminus assumed
SMILES: CCCCCCCCCCCCCCCC(=O)N[C@@H](CCC(=O)NCCCC[C@H](NC(=O)[C@H](CO)NC(=O)[C@H](CC(=O)O)NC(=O)[C@H](CC(C)C)NC(=O)[C@H](Cc1ccc(O)cc1)NC(=O)[C@H](CCCCN)NC(=O)[C@H](CO)NC(=O)[C@H](Cc1ccc(O)cc1)NC(=O)[C@H](CC(=O)O)NC(=O)[C@H](CO)NC(=O)[C@@H](NC(=O)[C@H](Cc1ccccc1)NC(=O)[C@@H](NC(=O)CNC(=O)[C@H](CCC(=O)O)NC(=O)[C@H](CO)NC(=O)[C@@H](N)Cc1c[nH]cn1)[C@@H](C)O)[C@@H](C)O)C(=O)N[C@@H](CCCNC(=N)N)C(=O)N[C@@H](C)C(=O)N[C@@H](CCC(N)=O)C(=O)N[C@@H](CC(=O)O)C(=O)N[C@@H](Cc1ccccc1)C(=O)N[C@H](C(=O)N[C@@H](CCC(N)=O)C(=O)N[C@@H](Cc1c[nH]c2ccccc12)C(=O)N[C@@H](CC(C)C)C(=O)N[C@H](C(=O)N[C@@H](C)C(=O)NCC(=O)NCC(N)=O)C(C)C)C(C)C)C(=O)O
B6: g678 (peptide)
peptide: HGQGTFTSDYSKYLDSK([γGlu-Palmitoyl])RAEDFVQWLVAGG-NH2
modifications: N-terminus assumed
SMILES: CCCCCCCCCCCCCCCC(=O)N[C@@H](CCC(=O)NCCCC[C@H](NC(=O)[C@H](CO)NC(=O)[C@H](CC(=O)O)NC(=O)[C@H](CC(C)C)NC(=O)[C@H](Cc1ccc(O)cc1)NC(=O)[C@H](CCCCN)NC(=O)[C@H](CO)NC(=O)[C@H](Cc1ccc(O)cc1)NC(=O)[C@H](CC(=O)O)NC(=O)[C@H](CO)NC(=O)[C@@H](NC(=O)[C@H](Cc1ccccc1)NC(=O)[C@@H](NC(=O)CNC(=O)[C@H](CCC(N)=O)NC(=O)CNC(=O)[C@@H](N)Cc1c[nH]cn1)[C@@H](C)O)[C@@H](C)O)C(=O)N[C@@H](CCCNC(=N)N)C(=O)N[C@@H](C)C(=O)N[C@@H](CCC(=O)O)C(=O)N[C@@H](CC(=O)O)C(=O)N[C@@H](Cc1ccccc1)C(=O)N[C@H](C(=O)N[C@@H](CCC(N)=O)C(=O)N[C@@H](Cc1c[nH]c2ccccc12)C(=O)N[C@@H](CC(C)C)C(=O)N[C@H](C(=O)N[C@@H](C)C(=O)NCC(=O)NCC(N)=O)C(C)C)C(C)C)C(=O)O
B7: g702 (peptide)
peptide: HSQGTFTSDYSK([γGlu-Palmitoyl])YLDSERAQDFVQWLVAGG-NH2
modifications: N-terminus assumed
SMILES: CCCCCCCCCCCCCCCC(=O)N[C@@H](CCC(=O)NCCCC[C@H](NC(=O)[C@H](CO)NC(=O)[C@H](Cc1ccc(O)cc1)NC(=O)[C@H](CC(=O)O)NC(=O)[C@H](CO)NC(=O)[C@@H](NC(=O)[C@H](Cc1ccccc1)NC(=O)[C@@H](NC(=O)CNC(=O)[C@H](CCC(N)=O)NC(=O)[C@H](CO)NC(=O)[C@@H](N)Cc1c[nH]cn1)[C@@H](C)O)[C@@H](C)O)C(=O)N[C@@H](Cc1ccc(O)cc1)C(=O)N[C@@H](CC(C)C)C(=O)N[C@@H](CC(=O)O)C(=O)N[C@@H](CO)C(=O)N[C@@H](CCC(=O)O)C(=O)N[C@@H](CCCNC(=N)N)C(=O)N[C@@H](C)C(=O)N[C@@H](CCC(N)=O)C(=O)N[C@@H](CC(=O)O)C(=O)N[C@@H](Cc1ccccc1)C(=O)N[C@H](C(=O)N[C@@H](CCC(N)=O)C(=O)N[C@@H](Cc1c[nH]c2ccccc12)C(=O)N[C@@H](CC(C)C)C(=O)N[C@H](C(=O)N[C@@H](C)C(=O)NCC(=O)NCC(N)=O)C(C)C)C(C)C)C(=O)O

For the first test, the target named is T1, human glucose-dependent insulinotropic peptide (gastric inhibitory polypeptide) receptor (human). Briefly: cell-based or functional assay.
As for B1, the cAMP EC50 (assay 1) came to 14.9 nM.

The molecule B2 had a cAMP EC50 (assay 1) of 19.6 nM.

As to B3, the cAMP EC50 (assay 1) came to 117 nM.

Consider B4, for which the cAMP EC50 (assay 1) stood at 582 nM.

As for B5, the cAMP EC50 (assay 1) is 545 nM.

For HXQGTFTSDYSKYLDSKRAQDFVQWLVAGG (Aib at 2 (written X); K(gE-palm) at 17; C-terminal amide) [g384], the cAMP EC50 (assay 1) came out at 17 nM.

The molecule B6 returned a cAMP EC50 (assay 1) of 123 nM.

In another test the target is human glucagon receptor (human, UniProt P47871 26-477). Briefly: cell-based or functional assay.
human glucagon receptor, sequence (P47871 26-477): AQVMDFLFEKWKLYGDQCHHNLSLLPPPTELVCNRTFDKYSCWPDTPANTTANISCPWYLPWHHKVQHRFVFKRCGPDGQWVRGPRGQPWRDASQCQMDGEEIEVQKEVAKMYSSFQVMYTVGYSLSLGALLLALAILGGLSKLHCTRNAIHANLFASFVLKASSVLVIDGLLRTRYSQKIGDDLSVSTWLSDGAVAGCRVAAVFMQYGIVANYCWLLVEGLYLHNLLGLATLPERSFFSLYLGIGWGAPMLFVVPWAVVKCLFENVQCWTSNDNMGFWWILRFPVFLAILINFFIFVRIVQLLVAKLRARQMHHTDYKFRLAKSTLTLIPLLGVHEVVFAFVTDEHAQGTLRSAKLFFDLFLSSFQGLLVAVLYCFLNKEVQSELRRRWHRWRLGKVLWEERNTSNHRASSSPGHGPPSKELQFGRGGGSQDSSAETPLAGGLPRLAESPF
Consider B1, for which the cAMP EC50 (assay 1) was 0.008 nM.

Molecule B7 displayed a cAMP EC50 (assay 1) of 1.49 nM.

For the molecule B2, the cAMP EC50 (assay 1) stood at 0.00177 nM.

Consider B3, for which the cAMP EC50 (assay 1) was found to be 0.189 nM.

In the case of B5, the cAMP EC50 (assay 1) is 1.93 nM.

With HXQGTFTSDYSKYLDSKRAQDFVQWLVAGG (Aib at 2 (written X); K(gE-palm) at 17; C-terminal amide) [g384], the cAMP EC50 (assay 1) was determined as 0.0429 nM.

B6 returned a cAMP EC50 (assay 1) of 4.52 nM.

The target in the next test is human GLP-1 receptor (human, UniProt P43220 24-463). Briefly: cell-based or functional assay.
human GLP-1 receptor, sequence (P43220 24-463): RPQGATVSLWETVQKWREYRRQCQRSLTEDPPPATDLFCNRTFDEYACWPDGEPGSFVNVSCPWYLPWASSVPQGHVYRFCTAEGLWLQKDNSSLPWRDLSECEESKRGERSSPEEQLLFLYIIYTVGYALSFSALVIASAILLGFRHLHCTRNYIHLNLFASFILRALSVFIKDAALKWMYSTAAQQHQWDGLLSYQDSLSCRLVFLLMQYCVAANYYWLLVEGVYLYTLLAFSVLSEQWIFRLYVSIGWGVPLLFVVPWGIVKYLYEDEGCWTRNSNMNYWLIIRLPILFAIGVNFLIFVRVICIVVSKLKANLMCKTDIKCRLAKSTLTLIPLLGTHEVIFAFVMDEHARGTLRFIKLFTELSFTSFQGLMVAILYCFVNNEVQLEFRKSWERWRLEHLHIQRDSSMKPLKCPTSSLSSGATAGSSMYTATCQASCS
On to B1, for which the cAMP EC50 (assay 1) came out at 0.0203 nM.

B7 yielded a cAMP EC50 (assay 1) of 3.35 nM.

As to B2, the cAMP EC50 (assay 1) was found to be 0.0366 nM.

In the case of B3, the cAMP EC50 (assay 1) is 0.135 nM.

In the case of B4, the cAMP EC50 (assay 1) was 0.0733 nM.

In turn, B5 registered a cAMP EC50 (assay 1) of 0.0908 nM.

In turn, HXQGTFTSDYSKYLDSKRAQDFVQWLVAGG (Aib at 2 (written X); K(gE-palm) at 17; C-terminal amide) [g384] gave a cAMP EC50 (assay 1) of 0.0272 nM.

Regarding B6, the cAMP EC50 (assay 1) was found to be 0.106 nM.

For the origin of these results see patent US20190185537A1 (AstraZeneca / MedImmune, published 2019).
